The values that follow come from US20220041718A1 (AUTOLUS, published 2022).

Assay [1] has as its target T1, Recombinant purified TRBC2 (human, UniProt A0A5B9 1-129, limits assumed).
T1 construct: Construct not described (may be a soluble TCR carrying TRBC2); also called TCR beta constant region 2; soluble recombinant biotinylated TRBC2
In words: SPR, biotinylated TRBC captured on CAP chip, antibody injected; t1/2=ln 2/kd. How it is done:
(§1) To test multivalent interaction of scFv-Fc and scFv-COMP antibody formats, a series S CAP chip was immobilised with Biotin capture reagent to 2500-5000 RU. Soluble recombinant biotinylated TRBC1 and TRBC2 were captured on flow cells 3, in independent experimental cycles, to a density of 90-110 RU. Purified anti-TRBC2 scFv-Fc or scFv-COMP antibodies were injected over the flow cell with 150s contact time and 300s dissociation at 30 μl/minute of flow rate. On flow cell 1, biotinylated protein was omitted and used for reference subtraction. A ‘0 concentration’ sensorgram of buffer alone was used as a double reference subtraction to factor for drift. Data were fit to a 1:1 Langmuir binding model. Since a capture system was used, a local Rmax parameter was used for the data fitting in each case. Off-rate value was determined, and half-life calculated according to: t1/2=ln 2/kd.
Background: Surface plasmon resonance follows binding to a sensor surface in real time, without labels.

Assay [2] concerns the target T2, Recombinant purified TRBC1 (human, UniProt P01850 1-129, limits assumed).
T2 construct: Construct not described (may be a soluble TCR carrying TRBC1); also called TCR beta constant region 1; soluble recombinant biotinylated TRBC1
Put plainly: SPR, IgG captured on anti-human Fc, TRBC1 as analyte. From the text:
(§2) A series S CM5 sensor chip was immobilised via amine coupling, with an anti-human Fc capture antibody to a density of 9000-10000 RU, using a Biacore T200 instrument. HBS-P+ buffer was used as running buffer in all experimental conditions. The test anti-TRBC2 antibodies (Table 1) were captured on flow cells 2, 3 and 4 to a density of 100-300 RU. Recombinant purified TRBC1 or TRBC2 at known concentrations were used as the ‘analyte’ and injected over the respective flow cells with 150s contact time and 300s dissociation at 30 μl/minute of flow rate. In each experiment, flow cell 1 was unmodified and used for reference subtraction. A ‘0 concentration’ sensorgram of buffer alone was used as a double reference subtraction to factor for drift. Data were fit to a 1:1 Langmuir binding model. Since a capture system was used, a local Rₘₐₓ parameter was used for the data fitting in each case.

Assay [3] has as its target T1, Recombinant purified TRBC2. Put plainly: SPR, IgG captured on anti-human Fc, TRBC2 as analyte.
Description: as §2

In assay [4] the target is T1, Recombinant purified TRBC2. In words: SPR (Biacore T200), biotinylated TRBC2 captured on a CAP chip, scFv-COMP injected; half-life of dissociation, t1/2 = ln 2/kd [cont.) C]. How it is done:
as §1

In assay [5] the target is T1, Recombinant purified TRBC2. In words: SPR, 1:1 interaction, antibody captured, TRBC as analyte; t1/2=ln 2/kd.
Description: as §2, with “To test 1:1 binding interaction of the anti-TRBC2 scFv, a series” for “A series”, “anti-TRBC2 antibody was” for “anti-TRBC2 antibodies (Table 1) were”, “flow” for “flow cells 2, 3 and”, “of 200-250” for “of 100-300”, “rate. Flow” for “rate. In each experiment, flow”, “case. Off-rate value was determined, and half-life calculated according to: t1/2=ln 2/kd.” for “case.”

For assay [6], the target named is T1, Recombinant purified TRBC2. In words: SPR (Biacore T200), captured anti-TRBC2 binder, recombinant TRBC2 as analyte; half-life of dissociation, t1/2 = ln 2/kd.
Description: as §2, with “To test 1:1 binding interaction of the anti-TRBC2 scFv, a series” for “A series”, “anti-TRBC2 antibody was” for “anti-TRBC2 antibodies (Table 1) were”, “flow” for “flow cells 2, 3 and”, “of 200-250” for “of 100-300”, “rate. Flow” for “rate. In each experiment, flow”, “case. Off-rate value was determined, and half-life calculated according to: t1/2=ln 2/kd.” for “case.”

T2 sequence (P01850 1-129 limits assumed): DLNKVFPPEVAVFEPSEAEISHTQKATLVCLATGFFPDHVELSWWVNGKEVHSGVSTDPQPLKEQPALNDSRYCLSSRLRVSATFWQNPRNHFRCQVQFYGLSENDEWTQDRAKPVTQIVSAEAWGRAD
T1 sequence (A0A5B9 1-129 limits assumed): as the sequence (P01850 1-129 limits assumed) above, with N3K, K4N, E9K, F36Y counted along it

B1: anti-TRBC2 scFv-Fc (T28K, Y32F, A100N, Y102L, N103M in VH; N35R in VL of hJovi-1) (Fc fusion)
chain: QVQLVQSGAEVKKPGASVKVSCKASGYKFTGFVMHWVRQAPGQGLEWMGFINPYNDDIQSNERFRGRVTMTRDTSISTAYMELSRLRSDDTAVYYCARGNGLMFDGAYRFFDFWGQGTMVTVSSGGGGSGGGGSGGGGSDIVMTQSPLSLPVTPGEPASISCRSSQRLVHSNGRTYLHWYLQKPGQSPRLLIYRVSNRFPGVPDRFSGSGSGTDFTLKISRVEAEDVGVYYCSQSTHVPYTFGQGTKLEIKRSDPRGPTIKPCPPCKCPAPNLLGGPSVFIFPPKIKDVLMISLSPIVTCVVVDVSEDDPDVQISWFVNNVEVHTAQTQTHREDYNSTLRVVSALPIQHQDWMSGKEFKCKVNNKDLPAPIERTISKPKGSVRAPQVYVLPPPEEEMTKKQVTLTCMVTDFMPEDIYVEWTNNGKTELNYKNTEPVLDSDGSYFMYSKLRVEKKNWVERNSYSCSVVHEGLHNHHTTKSFSRTPGK
notes: Multivalent format
The term half-life denotes the time in which the quantity being followed falls by half. For B1, the half-life in assay [1] amounted to 16.2 s.

B2: hJovi-1 variant IgG, VH T28K, Y32F, R98K, A100N; VL unmutated (antibody, V domains shown)
VH: QVQLVQSGAEVKKPGASVKVSCKASGYKFTGFVMHWVRQAPGQGLEWMGFINPYNDDIQSNERFRGRVTMTRDTSISTAYMELSRLRSDDTAVYYCAKGNGYNFDGAYRFFDFWGQGTMVTVSS
VL: DIVMTQSPLSLPVTPGEPASISCRSSQRLVHSNGNTYLHWYLQKPGQSPRLLIYRVSNRFPGVPDRFSGSGSGTDFTLKISRVEAEDVGVYYCSQSTHVPYTFGQGTKLEIK
notes: IgG format
Broadly, the Kd is the equilibrium constant for the complex coming apart. For B2, the Kd amounted to 4660 nM in assay [2] and 1080 nM in assay [3].

B3: hJovi-1 variant IgG, VH Y27W, T28K, Y32F, A100N; VL unmutated (antibody, V domains shown)
VH: QVQLVQSGAEVKKPGASVKVSCKASGWKFTGFVMHWVRQAPGQGLEWMGFINPYNDDIQSNERFRGRVTMTRDTSISTAYMELSRLRSDDTAVYYCARGNGYNFDGAYRFFDFWGQGTMVTVSS
VL: DIVMTQSPLSLPVTPGEPASISCRSSQRLVHSNGNTYLHWYLQKPGQSPRLLIYRVSNRFPGVPDRFSGSGSGTDFTLKISRVEAEDVGVYYCSQSTHVPYTFGQGTKLEIK
notes: IgG format
B3: the dissociation constant (Kd) in assay [2] worked out at 21000 nM; in assay [3], 3060 nM.

B4: hJovi-1 variant IgG, VH V2K, T28K, Y32F, A100N; VL unmutated (antibody, V domains shown)
VH: QKQLVQSGAEVKKPGASVKVSCKASGYKFTGFVMHWVRQAPGQGLEWMGFINPYNDDIQSNERFRGRVTMTRDTSISTAYMELSRLRSDDTAVYYCARGNGYNFDGAYRFFDFWGQGTMVTVSS
VL: DIVMTQSPLSLPVTPGEPASISCRSSQRLVHSNGNTYLHWYLQKPGQSPRLLIYRVSNRFPGVPDRFSGSGSGTDFTLKISRVEAEDVGVYYCSQSTHVPYTFGQGTKLEIK
notes: IgG format
Consider B4, for which the Kd was found to be 2400 nM in assay [2] and 883 nM in assay [3].

B5: hJovi-1 variant IgG, VH Y27F, T28K, Y32F, A100N; VL unmutated (antibody, V domains shown)
VH: QVQLVQSGAEVKKPGASVKVSCKASGFKFTGFVMHWVRQAPGQGLEWMGFINPYNDDIQSNERFRGRVTMTRDTSISTAYMELSRLRSDDTAVYYCARGNGYNFDGAYRFFDFWGQGTMVTVSS
VL: DIVMTQSPLSLPVTPGEPASISCRSSQRLVHSNGNTYLHWYLQKPGQSPRLLIYRVSNRFPGVPDRFSGSGSGTDFTLKISRVEAEDVGVYYCSQSTHVPYTFGQGTKLEIK
notes: IgG format
As to B5, the results for the Kd in assay [2] and in assay [3] were 4480 nM and 1210 nM, respectively.

B6: hJovi-1 variant IgG, VH T28R, Y32F, A100N; VL unmutated (antibody, V domains shown)
VH: QVQLVQSGAEVKKPGASVKVSCKASGYRFTGFVMHWVRQAPGQGLEWMGFINPYNDDIQSNERFRGRVTMTRDTSISTAYMELSRLRSDDTAVYYCARGNGYNFDGAYRFFDFWGQGTMVTVSS
VL: DIVMTQSPLSLPVTPGEPASISCRSSQRLVHSNGNTYLHWYLQKPGQSPRLLIYRVSNRFPGVPDRFSGSGSGTDFTLKISRVEAEDVGVYYCSQSTHVPYTFGQGTKLEIK
notes: IgG format
B6: the Kd stood at 1440 nM in assay [2] and 582 nM in assay [3].

B7: hJovi-1 variant IgG, VH V2R, T28K, Y32F, A100N; VL unmutated (antibody, V domains shown)
VH: QRQLVQSGAEVKKPGASVKVSCKASGYKFTGFVMHWVRQAPGQGLEWMGFINPYNDDIQSNERFRGRVTMTRDTSISTAYMELSRLRSDDTAVYYCARGNGYNFDGAYRFFDFWGQGTMVTVSS
VL: DIVMTQSPLSLPVTPGEPASISCRSSQRLVHSNGNTYLHWYLQKPGQSPRLLIYRVSNRFPGVPDRFSGSGSGTDFTLKISRVEAEDVGVYYCSQSTHVPYTFGQGTKLEIK
notes: IgG format
For the molecule B7, the Kd in assay [2] is 5110 nM; in assay [3] it was 1600 nM.

B8: hJovi-1 variant IgG, VH Y27N, T28K, Y32F, A100N; VL unmutated (antibody, V domains shown)
VH: QVQLVQSGAEVKKPGASVKVSCKASGNKFTGFVMHWVRQAPGQGLEWMGFINPYNDDIQSNERFRGRVTMTRDTSISTAYMELSRLRSDDTAVYYCARGNGYNFDGAYRFFDFWGQGTMVTVSS
VL: DIVMTQSPLSLPVTPGEPASISCRSSQRLVHSNGNTYLHWYLQKPGQSPRLLIYRVSNRFPGVPDRFSGSGSGTDFTLKISRVEAEDVGVYYCSQSTHVPYTFGQGTKLEIK
notes: IgG format
For B8, the values for the Kd in assay [2] and in assay [3] were 74300 nM and 6950 nM, respectively.

B9: anti-TRBC2 scFv-COMP (T28K, Y32F, A100N, Y102L, N103M in VH; N35R in VL of hJovi-1) (other)
chain: QVQLVQSGAEVKKPGASVKVSCKASGYKFTGFVMHWVRQAPGQGLEWMGFINPYNDDIQSNERFRGRVTMTRDTSISTAYMELSRLRSDDTAVYYCARGNGLMFDGAYRFFDFWGQGTMVTVSSGGGGSGGGGSGGGGSDIVMTQSPLSLPVTPGEPASISCRSSQRLVHSNGRTYLHWYLQKPGQSPRLLIYRVSNRFPGVPDRFSGSGSGTDFTLKISRVEAEDVGVYYCSQSTHVPYTFGQGTKLEIKRSGGGGSGGGGSGGGGSAGSDLGPQMLRELQETNAALQDVRELLRQQVREITFLKNTVMECDACGSGKKDPKSGGGGSYPYDVPDYA
notes: scFv fused to the COMP coiled-coil
Regarding B9, the half-life in assay [1] is 438 s. Besides, the t1/2 in assay [4] turned out to be 436 s.

B10: anti-TRBC2 scFv (T28K, Y32F, A100N, Y102L, N103M in VH; N35R in VL of hJovi-1) (scFv)
scFv: QVQLVQSGAEVKKPGASVKVSCKASGYKFTGFVMHWVRQAPGQGLEWMGFINPYNDDIQSNERFRGRVTMTRDTSISTAYMELSRLRSDDTAVYYCARGNGLMFDGAYRFFDFWGQGTMVTVSSGGGGSGGGGSGGGGSDIVMTQSPLSLPVTPGEPASISCRSSQRLVHSNGRTYLHWYLQKPGQSPRLLIYRVSNRFPGVPDRFSGSGSGTDFTLKISRVEAEDVGVYYCSQSTHVPYTFGQGTKLEIKR
notes: the format in the assay is unsure
In the case of B10, the half-life in assay [5] came to 8 s. Besides, in assay [6], the t1/2 turned out to be 8.3 s.
